Measurements taken from patent publication US20230322953A1 (HARBOUR BIOMED SHANGHAI, published 2023).
Where two headings read alike, the source gives them in different places.

What was measured:
[1] = target: T1, human BCMA on NCI-H929 cells (ATCC, CRL-9068) (human, UniProt Q02223 1-184); test: cell-based or functional assay
T1 sequence (looked up): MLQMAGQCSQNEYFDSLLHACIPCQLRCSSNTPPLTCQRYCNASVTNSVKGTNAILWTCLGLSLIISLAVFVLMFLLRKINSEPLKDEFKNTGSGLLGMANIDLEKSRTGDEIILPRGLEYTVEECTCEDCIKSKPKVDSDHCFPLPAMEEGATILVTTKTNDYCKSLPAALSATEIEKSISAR

[2] = target: T2, cynomolgus monkey BCMA (ACRO Biosystems, #BCA-C82F4) (cynomolgus monkey, UniProt A0A2K5UD97 1-53); test: BLI (Octet Red96e), cyBCMA.Fc
T2 construct: Bought protein; also called cyBCMA.Fc

[3] = target: T3, cynomolgus monkey CD3 (TCR/CD3 complex) on cynomolgus monkey T cells (cynomolgus monkey); test: flow cytometry (FACS) on cynomolgus monkey T cells
T3 construct: whole, on cells

[4] = target: T1, human BCMA on NCI-H929 cells (ATCC, …); test: cell-based or functional assay; remark: listed apart in the source
[5] = target: T4, human CD3 (TCR/CD3 complex) on human T cells (human, UniProt P07766 23-207); test: flow cytometry (FACS) on human T cells, Experiment 3
T4 construct: whole, on cells

[6] = target: T5, biotinylated human BCMA-Fc, Avitag recombinant protein (ACRO Biosystems, #BC7-H82F0) (human, UniProt Q02223 1-54, biotinylated (Avitag)); test: BLI (Octet Red96e), biotinylated BCMA-Fc on SA sensor, 1:1 global fitting;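 note: Anti-BCMA antibodies analysed as binding partners of the captured BCMA antigen, with reference signals removed by double referencing before kinetic fitting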
T5 construct: extracellular domain; Bought protein; also called huBCMA.Fc; recombinant human BCMA-ECD-Fc
T5 sequence (looked up): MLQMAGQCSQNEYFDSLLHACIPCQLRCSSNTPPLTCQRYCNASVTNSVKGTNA

[7] = target: T1, human BCMA on NCI-H929 cells (ATCC, …); test: cell-based or functional assay; remark: listed apart in the source
[8] = target: T1, human BCMA on NCI-H929 cells (ATCC, …); test: cell-based or functional assay; remark: listed apart in the source

T3 sequence (Q95LI5 22-198, one chain of several): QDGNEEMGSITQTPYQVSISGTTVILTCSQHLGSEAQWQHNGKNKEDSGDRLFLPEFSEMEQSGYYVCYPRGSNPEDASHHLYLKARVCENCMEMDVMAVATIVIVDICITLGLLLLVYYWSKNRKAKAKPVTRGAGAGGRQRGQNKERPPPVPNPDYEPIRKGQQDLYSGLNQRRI
T2 sequence (A0A2K5UD97 entry or part of it): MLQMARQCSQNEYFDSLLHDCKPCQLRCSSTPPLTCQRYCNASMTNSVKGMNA
T4 sequence (P07766 23-207, one chain of several): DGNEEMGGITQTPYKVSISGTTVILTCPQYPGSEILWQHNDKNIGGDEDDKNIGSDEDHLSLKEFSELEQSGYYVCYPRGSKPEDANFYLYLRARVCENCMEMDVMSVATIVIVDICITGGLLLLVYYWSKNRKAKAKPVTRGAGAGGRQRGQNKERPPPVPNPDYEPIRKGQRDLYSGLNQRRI

B1: PR002199, BCMA × CD3 bispecific antibody derived from WO2019133761A1 (bispecific antibody, human IgG1, kappa, L234A L235A)
chain 1: not shown
chain 2: EVQLVESGGGLVQPGRSLRLSCAASGFTFDDYAMHWVRQAPGKGLEWVSGISWNSGSIGYADSVKGRFTISRDNAKNSLYLQMNSLRAEDTALYYCAKDSRGYGDYRLGGAYWGQGTLVTVSSASTKGPSVFPLAPSSKSTSGGTAALGCLVKDYFPEPVTVSWNSGALTSGVHTFPAVLQSSGLYSLSSVVTVPSSSLGTQTYICNVNHKPSNTKVDKKVEPKSCDKTHTCPPCPAPEAAGGPSVFLFPPKPKDTLMISRTPEVTCVVVDVSHEDPEVKFNWYVDGVEVHNAKTKPREEQYNSTYRVVSVLTVLHQDWLNGKEYKCKVSNKALGAPIEKTISKAKGQPREPQVYTLPPCREEMTKNQVSLWCLVKGFYPSDIAVEWESNGQPENNYKTTPPVLDSDGSFFLYSKLTVDKSRWQQGNVFSCSVMHEALHNHYTQKSLSLSPGK
chain 3: EVQLLESGGGLVQPGGSLRLSCAASGFTVSSYGMSWVRQAPGKGPEWVSGIRGSDGSTYYADSVKGRFTISRDNSKNTLYLQMNSLRAEDTAVYYCAKQGENDGPFDHRGQGTLVTVSSGGGGSEVQLLESGGGLVQPGGSLRLSCAASGFTVSSYGMSWVRQAPGKGPEWVSGIRGSDGSTYYADSVKGRFTISRDNSKNTLYLQMNSLRAEDTAVYYCAKQGENDGPFDHRGQGTLVTVSSASEPKSSDKTHTCPPCPAPEAAGGPSVFLFPPKPKDTLMISRTPEVTCVVVDVSHEDPEVKFNWYVDGVEVHNAKTKPREEQYNSTYRVVSVLTVLHQDWLNGKEYKCKVSNKALGAPIEKTISKAKGQPREPQVCTLPPSREEMTKNQVSLSCAVKGFYPSDIAVEWESNGQPENNYKTTPPVLDSDGSFFLVSKLTVDKSRWQQGNVFSCSVMHEALHNHYTQKSLSLSPGK
notes: Three polypeptide chains; also called Positive control 2
IFN-γ release, EC50 [1]: 0.483 nM
IFN-γ release, Maximum [1]: 1020 pg/mL
IL-2 release, EC50 [1]: 2.27 nM
IL-2 release, Maximum [1]: 21.5 pg/mL
IL-6 release, EC50 [1]: 13.1 nM
IL-6 release, Maximum [1]: 245 pg/mL
IL-10 release, EC50 [1]: 0.861 nM
IL-10 release, Maximum [1]: 583 pg/mL
NCI-H929 killing, EC50 [1]: 0.16 nM
NCI-H929 killing, Maximum killing rate % [1]: 61.2%
TNF-α release, EC50 [1]: 0.464 nM
TNF-α release, Maximum [1]: 608 pg/mL
binding result [2]: no binding
Maximum MFI [3]: 1110 MFI
Killing EC50 (nM), PBMC + NCI-H929, + 10 ng/mL sBAFF [4]: 0.063 nM
Killing EC50 (nM), PBMC + NCI-H929, + 10 ng/ml sAPRIL [4]: 0.096 nM
Killing EC50 (nM), PBMC + NCI-H929, + 100 ng/mL sBAFF [4]: 0.076 nM
Killing EC50 (nM), PBMC + NCI-H929, + 100 ng/ml sAPRIL [4]: 0.253 nM
Killing EC50 (nM), PBMC + NCI-H929, no soluble ligand [4]: 0.103 nM
Maximum MFI [5]: 6850 MFI
Kd [6]: 0.0452 nM
koff [6]: 2.46e-05 s⁻¹
kon [6]: 545000 M⁻¹ s⁻¹
IFN-γ release, EC50 [7]: 0.261 nM
IFN-γ release, Maximum [7]: 658 pg/mL
IL-2 release, EC50 [7]: 0.312 nM
IL-2 release, Maximum [7]: 25.8 pg/mL
IL-6 release, EC50 [7]: 0.341 nM
IL-6 release, Maximum [7]: 71.4 pg/mL
IL-10 release, EC50 [7]: 0.335 nM
IL-10 release, Maximum [7]: 190 pg/mL
NCI-H929 killing, EC50 [7]: 0.115 nM
NCI-H929 killing, Maximum killing rate % [7]: 62%
TNF-α release, EC50 [7]: 0.224 nM
TNF-α release, Maximum [7]: 1020 pg/mL
Killing EC50 (nM), PBMC + NCI-H929, + 62.5 ng/ml sBCMA [8]: 0.8 nM
Killing EC50 (nM), PBMC + NCI-H929, + 125 ng/ml sBCMA [8]: 1 nM
Killing EC50 (nM), PBMC + NCI-H929, + 250 ng/ml sBCMA [8]: 3.5 nM
Killing EC50 (nM), PBMC + NCI-H929, + 500 ng/ml sBCMA [8]: 7.7 nM
Killing EC50 (nM), PBMC + NCI-H929, no sBCMA [8]: 0.2 nM
